Measurements taken from patent US20110105394A1 (Novo Nordisk, published 2011).
Values belong to the binder of their own block, whether it stands above or below them. *1 amine or outer side, *2 acyl side, *3 side chain or, on linkers, in order; H or OH if unused. Bridges are numbered along the chain shown (N, C = ends). Where no end group is shown, it is not given here. The star is where a group is joined. X2 = (S)‑4‑Carboxy‑4‑(19-carboxynonadecanoylamino)butyryl, O=C(O)CCCCCCCCCCCCCCCCCCC(=O)N[C@@H](CCC(=O)*)C(=O)O; C20 diacid = O=C(O)CCCCCCCCCCCCCCCCCCC(=O)*; γGlu = O=C(O)[C@H](CCC(=O)[*:2])N[*:1]; AEEA = NCCOCCOCC(=O)O

Molecular target: T1, Amylin 3(a) receptor (human calcitonin receptor (CTa) with RAMP-3) (human, UniProt P30988 25-474; O60896 24-148, limits assumed)
T1 sequence (looked up) 1: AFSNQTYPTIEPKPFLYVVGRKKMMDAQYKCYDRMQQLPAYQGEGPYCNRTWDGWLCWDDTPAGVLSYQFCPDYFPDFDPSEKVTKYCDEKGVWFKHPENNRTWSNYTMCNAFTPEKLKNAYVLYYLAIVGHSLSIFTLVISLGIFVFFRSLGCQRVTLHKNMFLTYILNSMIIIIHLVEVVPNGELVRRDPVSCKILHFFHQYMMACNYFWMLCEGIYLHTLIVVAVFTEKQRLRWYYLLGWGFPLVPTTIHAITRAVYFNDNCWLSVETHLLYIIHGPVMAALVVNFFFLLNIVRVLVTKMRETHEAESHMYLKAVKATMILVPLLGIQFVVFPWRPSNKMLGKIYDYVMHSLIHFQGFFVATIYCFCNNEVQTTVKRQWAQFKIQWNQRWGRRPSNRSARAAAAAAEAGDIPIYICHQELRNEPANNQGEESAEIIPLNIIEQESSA
T1 sequence (looked up) 2: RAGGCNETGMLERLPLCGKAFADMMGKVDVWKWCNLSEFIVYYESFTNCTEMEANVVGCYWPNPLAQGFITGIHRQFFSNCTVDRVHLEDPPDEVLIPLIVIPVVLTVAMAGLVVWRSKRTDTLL
Test: cell-based or functional assay

- Potency Luciferase: 0.06 nM
B1: N-alpha-[(S)-4-Carboxy-4-(19-carboxynonadecanoylamino)butyryl]-Glu-Arg-[Glu1,Asp14,His17,Gln21,Ala25,Pro26,Ser28,Ser29]-pramlintide (peptide)
peptide: X2-ERECNTATCATQRLADFLHHSSQNFGAPLSSTNVGSNTY-NH2
modifications: disulfide 4-9
SMILES: CC(C)C[C@H](NC(=O)[C@H](CCCNC(=N)N)NC(=O)[C@H](CCC(N)=O)NC(=O)[C@@H](NC(=O)[C@H](C)NC(=O)[C@@H]1CSSC[C@H](NC(=O)[C@H](CCC(=O)O)NC(=O)[C@H](CCCNC(=N)N)NC(=O)[C@H](CCC(=O)O)NC(=O)CC[C@H](NC(=O)CCCCCCCCCCCCCCCCCCC(=O)O)C(=O)O)C(=O)N[C@@H](CC(N)=O)C(=O)N[C@@H]([C@@H](C)O)C(=O)N[C@@H](C)C(=O)N[C@@H]([C@@H](C)O)C(=O)N1)[C@@H](C)O)C(=O)N[C@@H](C)C(=O)N[C@@H](CC(=O)O)C(=O)N[C@@H](Cc1ccccc1)C(=O)N[C@@H](CC(C)C)C(=O)N[C@@H](Cc1c[nH]cn1)C(=O)N[C@@H](Cc1c[nH]cn1)C(=O)N[C@@H](CO)C(=O)N[C@@H](CO)C(=O)N[C@@H](CCC(N)=O)C(=O)N[C@@H](CC(N)=O)C(=O)N[C@@H](Cc1ccccc1)C(=O)NCC(=O)N[C@@H](C)C(=O)N1CCC[C@H]1C(=O)N[C@@H](CC(C)C)C(=O)N[C@@H](CO)C(=O)N[C@@H](CO)C(=O)N[C@H](C(=O)N[C@@H](CC(N)=O)C(=O)N[C@H](C(=O)NCC(=O)N[C@@H](CO)C(=O)N[C@@H](CC(N)=O)C(=O)N[C@H](C(=O)N[C@@H](Cc1ccc(O)cc1)C(N)=O)[C@@H](C)O)C(C)C)[C@@H](C)O

- Potency Luciferase: 0.08 nM
B2: N-alpha-[3-(2-{2-[2-(2-{2-[2-(2-{2-[(S)-4-Carboxy-4-(17-carboxyheptadecanoylamino) … (peptide)
peptide: RCNTATCATQRLANFLHHSSNNFGPILPPTNVGSNTY-NH2
modifications: disulfide 2-7; not fully specified (N-terminus); printed as N-alpha-[3-(2-{2-[2-(2-{2-[2-(2-{2-[(S)-4-Carboxy-4-(17-carboxyheptadecanoylamino) butyrylamino]ethoxy}ethoxy)ethoxy]ethoxy}ethoxy)ethoxy]ethoxy}ethoxy)propionylamino][Arg1,His17]-pramlintide

- Potency Luciferase: 0.2 nM
B3: N-alpha-[(S)-4-Carboxy-4-(19-carboxynonadecanoylamino)butyryl]-[Glu 1,His17]-pramlintide (peptide)
peptide: {C20 diacid-γGlu}-ECNTATCATQRLANFLHHSSNNFGPILPPTNVGSNTY-NH2
modifications: disulfide 2-7
SMILES: CC[C@H](C)[C@H](NC(=O)[C@@H]1CCCN1C(=O)CNC(=O)[C@H](Cc1ccccc1)NC(=O)[C@H](CC(N)=O)NC(=O)[C@H](CC(N)=O)NC(=O)[C@H](CO)NC(=O)[C@H](CO)NC(=O)[C@H](Cc1c[nH]cn1)NC(=O)[C@H](Cc1c[nH]cn1)NC(=O)[C@H](CC(C)C)NC(=O)[C@H](Cc1ccccc1)NC(=O)[C@H](CC(N)=O)NC(=O)[C@H](C)NC(=O)[C@H](CC(C)C)NC(=O)[C@H](CCCNC(=N)N)NC(=O)[C@H](CCC(N)=O)NC(=O)[C@@H](NC(=O)[C@H](C)NC(=O)[C@@H]1CSSC[C@H](NC(=O)[C@H](CCC(=O)O)NC(=O)CC[C@H](NC(=O)CCCCCCCCCCCCCCCCCCC(=O)O)C(=O)O)C(=O)N[C@@H](CC(N)=O)C(=O)N[C@@H]([C@@H](C)O)C(=O)N[C@@H](C)C(=O)N[C@@H]([C@@H](C)O)C(=O)N1)[C@@H](C)O)C(=O)N[C@@H](CC(C)C)C(=O)N1CCC[C@H]1C(=O)N1CCC[C@H]1C(=O)N[C@H](C(=O)N[C@@H](CC(N)=O)C(=O)N[C@H](C(=O)NCC(=O)N[C@@H](CO)C(=O)N[C@@H](CC(N)=O)C(=O)N[C@H](C(=O)N[C@@H](Cc1ccc(O)cc1)C(N)=O)[C@@H](C)O)C(C)C)[C@@H](C)O

- Potency Luciferase: 0.2 nM
B4: N-alpha-[(S)-4-Carboxy-4-(19-carboxynonadecanoylamino)butyryl]-Glu-Arg-[Glu1,Arg17,Ala25,Pro26,Ser28,Ser29]-pramlintide (peptide)
peptide: X2-ERECNTATCATQRLANFLRHSSNNFGAPLSSTNVGSNTY-NH2
modifications: disulfide 4-9
SMILES: CC(C)C[C@H](NC(=O)[C@H](CCCNC(=N)N)NC(=O)[C@H](CCC(N)=O)NC(=O)[C@@H](NC(=O)[C@H](C)NC(=O)[C@@H]1CSSC[C@H](NC(=O)[C@H](CCC(=O)O)NC(=O)[C@H](CCCNC(=N)N)NC(=O)[C@H](CCC(=O)O)NC(=O)CC[C@H](NC(=O)CCCCCCCCCCCCCCCCCCC(=O)O)C(=O)O)C(=O)N[C@@H](CC(N)=O)C(=O)N[C@@H]([C@@H](C)O)C(=O)N[C@@H](C)C(=O)N[C@@H]([C@@H](C)O)C(=O)N1)[C@@H](C)O)C(=O)N[C@@H](C)C(=O)N[C@@H](CC(N)=O)C(=O)N[C@@H](Cc1ccccc1)C(=O)N[C@@H](CC(C)C)C(=O)N[C@@H](CCCNC(=N)N)C(=O)N[C@@H](Cc1c[nH]cn1)C(=O)N[C@@H](CO)C(=O)N[C@@H](CO)C(=O)N[C@@H](CC(N)=O)C(=O)N[C@@H](CC(N)=O)C(=O)N[C@@H](Cc1ccccc1)C(=O)NCC(=O)N[C@@H](C)C(=O)N1CCC[C@H]1C(=O)N[C@@H](CC(C)C)C(=O)N[C@@H](CO)C(=O)N[C@@H](CO)C(=O)N[C@H](C(=O)N[C@@H](CC(N)=O)C(=O)N[C@H](C(=O)NCC(=O)N[C@@H](CO)C(=O)N[C@@H](CC(N)=O)C(=O)N[C@H](C(=O)N[C@@H](Cc1ccc(O)cc1)C(N)=O)[C@@H](C)O)C(C)C)[C@@H](C)O

- Potency Luciferase: 0.3 nM
B5: N-alpha-[(S)-4-Carboxy-4-(19-carboxynonadecanoylamino)butyryl]-Glu-[Glu1,His17]-pramlintide (peptide)
peptide: EECNTATCATQRLANFLHHSSNNFGPILPPTNVGSNTY-NH2
modifications: disulfide 3-8; not fully specified (N-terminus); printed as N-alpha-[(S)-4-Carboxy-4-(19-carboxynonadecanoylamino)butyryl]-Glu-[Glu1,His17]-pramlintide

- Potency Luciferase: 0.2 nM
B6: N-alpha-[(S)-4-Carboxy-4-(19-carboxynonadecanoylamino)butyryl]-His-[His1,His17,Arg18]-pramlintide (peptide)
peptide: HHCNTATCATQRLANFLHRSSNNFGPILPPTNVGSNTY-NH2
modifications: disulfide 3-8; not fully specified (N-terminus); printed as N-alpha-[(S)-4-Carboxy-4-(19-carboxynonadecanoylamino)butyryl]-His-[His1,His17,Arg18]-pramlintide

- Potency Luciferase: 0.09 nM
B7: N-alpha-[2-(2-{2-[4-(S)-Carboxy-4-(19-carboxynonadecanoylamino)butyrylamino]ethoxy}ethoxy)acetyl]-His-His-[Arg1,His17]-pramlintide (peptide)
peptide: {C20 diacid-γGlu-AEEA}-HHRCNTATCATQRLANFLHHSSNNFGPILPPTNVGSNTY-NH2
modifications: disulfide 4-9
SMILES: CC[C@H](C)[C@H](NC(=O)[C@@H]1CCCN1C(=O)CNC(=O)[C@H](Cc1ccccc1)NC(=O)[C@H](CC(N)=O)NC(=O)[C@H](CC(N)=O)NC(=O)[C@H](CO)NC(=O)[C@H](CO)NC(=O)[C@H](Cc1c[nH]cn1)NC(=O)[C@H](Cc1c[nH]cn1)NC(=O)[C@H](CC(C)C)NC(=O)[C@H](Cc1ccccc1)NC(=O)[C@H](CC(N)=O)NC(=O)[C@H](C)NC(=O)[C@H](CC(C)C)NC(=O)[C@H](CCCNC(=N)N)NC(=O)[C@H](CCC(N)=O)NC(=O)[C@@H](NC(=O)[C@H](C)NC(=O)[C@@H]1CSSC[C@H](NC(=O)[C@H](CCCNC(=N)N)NC(=O)[C@H](Cc2c[nH]cn2)NC(=O)[C@H](Cc2c[nH]cn2)NC(=O)COCCOCCNC(=O)CC[C@H](NC(=O)CCCCCCCCCCCCCCCCCCC(=O)O)C(=O)O)C(=O)N[C@@H](CC(N)=O)C(=O)N[C@@H]([C@@H](C)O)C(=O)N[C@@H](C)C(=O)N[C@@H]([C@@H](C)O)C(=O)N1)[C@@H](C)O)C(=O)N[C@@H](CC(C)C)C(=O)N1CCC[C@H]1C(=O)N1CCC[C@H]1C(=O)N[C@H](C(=O)N[C@@H](CC(N)=O)C(=O)N[C@H](C(=O)NCC(=O)N[C@@H](CO)C(=O)N[C@@H](CC(N)=O)C(=O)N[C@H](C(=O)N[C@@H](Cc1ccc(O)cc1)C(N)=O)[C@@H](C)O)C(C)C)[C@@H](C)O

- Potency Luciferase: 0.06 nM
B8: N-alpha-[(S)-4-Carboxy-4-(19-carboxynonadecanoylamino)butyryl]-[His17,Asp31]-pramlintide (2-37) (peptide)
peptide: {C20 diacid-γGlu}-CNTATCATQRLANFLHHSSNNFGPILPPTDVGSNTY-NH2
modifications: disulfide 1-6
SMILES: CC[C@H](C)[C@H](NC(=O)[C@@H]1CCCN1C(=O)CNC(=O)[C@H](Cc1ccccc1)NC(=O)[C@H](CC(N)=O)NC(=O)[C@H](CC(N)=O)NC(=O)[C@H](CO)NC(=O)[C@H](CO)NC(=O)[C@H](Cc1c[nH]cn1)NC(=O)[C@H](Cc1c[nH]cn1)NC(=O)[C@H](CC(C)C)NC(=O)[C@H](Cc1ccccc1)NC(=O)[C@H](CC(N)=O)NC(=O)[C@H](C)NC(=O)[C@H](CC(C)C)NC(=O)[C@H](CCCNC(=N)N)NC(=O)[C@H](CCC(N)=O)NC(=O)[C@@H](NC(=O)[C@H](C)NC(=O)[C@@H]1CSSC[C@H](NC(=O)CC[C@H](NC(=O)CCCCCCCCCCCCCCCCCCC(=O)O)C(=O)O)C(=O)N[C@@H](CC(N)=O)C(=O)N[C@@H]([C@@H](C)O)C(=O)N[C@@H](C)C(=O)N[C@@H]([C@@H](C)O)C(=O)N1)[C@@H](C)O)C(=O)N[C@@H](CC(C)C)C(=O)N1CCC[C@H]1C(=O)N1CCC[C@H]1C(=O)N[C@H](C(=O)N[C@@H](CC(=O)O)C(=O)N[C@H](C(=O)NCC(=O)N[C@@H](CO)C(=O)N[C@@H](CC(N)=O)C(=O)N[C@H](C(=O)N[C@@H](Cc1ccc(O)cc1)C(N)=O)[C@@H](C)O)C(C)C)[C@@H](C)O

- Potency Luciferase: 0.3 nM
B9: N-alpha-[(S)-4-Carboxy-4-(19-carboxynonadecanoylamino)butyryl]-Glu-[Glu1,Arg17]-pramlintide (peptide)
peptide: EECNTATCATQRLANFLRHSSNNFGPILPPTNVGSNTY-NH2
modifications: disulfide 3-8; not fully specified (N-terminus); printed as N-alpha-[(S)-4-Carboxy-4-(19-carboxynonadecanoylamino)butyryl]-Glu-[Glu1,Arg17]-pramlintide

- Potency Luciferase: 0.1 nM
B10: N-alpha-[(S)-4-Carboxy-4-(19-carboxynonadecanoylamino)butyryl]-[His17]-pramlintide (2-37) (peptide)
peptide: {C20 diacid-γGlu}-CNTATCATQRLANFLHHSSNNFGPILPPTNVGSNTY-NH2
modifications: disulfide 1-6
